According to the DeepSol protein solubility set:

Experiment: soluble on expression in E. coli; label from the status in PepcDB or PDB records

Sequence	soluble on expression in E. coli
MKHITIIGAGLAGTLCGLYLARRGYEVELFESRPDIRNSPTDYGRSINLALSCRGITALKAMNLLSEVNKIMVPMRARAIHEANGEVHYQPFGRYIDEYINAISRSDLNALLLNKAELCPNIKLHFNMKLHSLDIHNKKIKFENKNGDFVEASYHRLIGADGAPSHVRDMLKNEGIVSASRDFLSHGYKELSISKKHTKGMAREHLHLWPRDSFMLLGNPNPDDSITGSLFLANEGKDSFAELNNEEKLHLFFKTQFPDAYAAMPNLVQEFFGNPTGHLSTIQCSPWYYKDECLLIGDAAHGIIPFFGQGMNSAFEDCRILDELLDEYQDDWSRVNPLFYEQRKVNTDAIAKMSMDNYHEIHSDIRNPKFILQKQIERELMLRYPEHYVSMHVLVMFTNTPYAKAMAIGELQSGLLEQICFPITDIKELNWQEVEKLLGIYDKKLAKIILEHHHHHH	soluble
MLDPARSYDLIGDVHGCALTLEHLLDRLGYHKQAGVWRHPSRMAVFLGDIIDRGPRIRESLHIVHDMVEAGQALCIMGNHEFNALGWSTPAAEGSGKQFVREHTPRHARLIHETLTQFEQHPGDWHDFLQWFYELPLFVDAGRFRVVHACWDAGLIAPLRQQYPNGCIDREFLQSAAVPDSFACTAFDRLLRGTDMRLPHGLTMTSGDGLTRAFFRTKFWEDDPQTYGDIVFQPDALPEPVARTPLSPAEKNSLLRYGAEEPMLFVGHYWRSGKPAPIRPNLACLDYSAVLYGKLAAYRLDQETRLDPNKFVWVDVERPEVVRLEHHHHHH	not soluble
MAHHHHHHMESPRQEPLPQQPSELNTNAAAVLSTTTTESYVYTCRMCRHVLFMHHEILPHYPEPVGSGNKGFKYRGGGHASSQQQQGLHAAQEGGDVCTSYFLDPDISPWVAEESREVHQVSGGLDVMPDTIYCPNRKCNAKIGTQSWVGSQCSCGAWVTPAFKIHSRVVDKMPVAQ	not soluble
MLLKSIHHIAIICSDYEKSKAFYVHKLGFQVIQETYREERGSYKLDLSLNGSYVIELFSFPDPPERQTRPEAAGLRHLAFTVGSLDKAVQELHEKGIETEPIRTDPLTGKRFTFFFDPDQLPLELYEQ	not soluble
MSYLSAIENQENMVVKQEIKIEEEDDDYPLSTIDMAVQALIRNPHHNVDYICGVMIFGGSKNQFNELLNPVVVAQMSKQRKQKKVPVKNPAGEAKRGRGRPRKQSSEEKVQIPKVVVKFEPKKRGRPAGAAKWSQEVAVVLQKQPQRKRGRPLKIAKKIEPVFHQKKESKQNSEEKALIQQEAVKGEPKNRGRPCGAAERSREVVKKLQKQPPRKRGRPLKIAKNMEPEINQKKDTKQVHVCPICTLASKNGTCLCTKCQKWVHLKCTGIRSKQWNSQFQCKNCTC	not soluble
MSEIKQLPTRDEVPTPLTWDLTKIFKDDAAFDVAYNQLIEELNQAESFKGTLGDGAEAFLAALEYVLDVYRKVETLYVYSHLKNDQDTTNTAYQALYARASSLYAQVSEAVSWFDPEVLTLSDEQIWGYFEEQPKLAVYRHYIQNILDERPHVLSMEQEALLAGASEIFGASSNTFSILNNADLEFPTVQNAEGETIQLSHGVYGQLMESVDPSVREAAFKGLYKVYKQFRNTLASTLGAHVKTHNYKAKIRNYDSARAASLASNHIPESVHETLVAVVNKHLPLLHRYVKLRKKLLNVEELHMYDLYAPLLGEAPIRYSYEEAKEKAIEALKPLGEDYLSIVKEAFSSRWIDVIENQGKRSGAYSSGAYDTAPYILMNWHDSLDQLFTLVHEMGHSVHSYYTRNNQPYVYGDYSIFLAEIASTTNENILTEYLLQTETDPKVRAYVLNHYLDGFKGTIFRQTQFAEFEHFIHTEDAKGTPLTSEYLSEYYGELNAKYYGPEVVRDEEISYEWARIPHFYYNYYVYQYATGFSAASALSKHILAGEEGALENYLNYLKAGSSDFPIEVMKKAGVDMTQAAYIEDAMKVFEERLTELEALVEKL	not soluble
MRKVTLMDVFTHPIAQKYLQRSGVAHAIACAYHAYRLSVKADINPDLAAKAALLHDIGHYEWYTDGKWDYEKYKRNDIHAIKGAERAHKLLIRLGEEPKAAKEIALAILLHTDSYLPEGELDKNTLQQIVKKADELDEEPGGHHHYRQIDPSTARKKIEKLDQLIDQAQASVIKPV	not soluble
MSLTRPPALSDVPDAAALPAVTAVEAMHCRIPFPSPLQLGKVHMTHRDYVLVRLLLADGGTGHAIGFERGMPLLDLVTRVAPFYVGRSPAMRAAARRAAEAATPPARAVLMRGISLLDIAMWDALARNKGLPLWALLGGARRRVPVMPVVGYGASAPAVAEQCRDLAGRGFRTVKVMIDGSDLAADAALLDAVRKALPDEVAFGIDAHWSWTTIADAMPTCRRAEELGAIFIEDPFLPQQWRTIAELQTQLRVPLAVGEDVIDRYGFRDLAEAARILRVDASVSGGVTGAIEALHLATIMDREVIPHVFPALHGQLAAAFPAARCVEMILPEVGADPVDRLFAEEARIEGGDLLVSETPGAAIAFDWDKARDFALRSERVGEGHHHHHH	soluble
MRGSPHHHHHHGSAKNVVLDHDGNLDDFVAMVLLASNTEKVRLIGALCTDADCFVENGFNVTGKIMCLMHNNMNLPLFPIGKSAATAVNPFPKEWRCLAKNMDDMPILNIPENVELWDKIKAENEKYEGQQLLADLVMNSEEKVTICVTGPLSNVAWCIDKYGEKFTSKVEECVIMGGAVDVRGNVFLPSTDGTAEWNIYWDPASAKTVFGCPGLRRIMFSLDSTNTVPVRSPYVQRFGEQTNFLLSILVGTMWAMCTHCELLRDGDGYYAADALTAAYVVDQKVANVDPVPIDVVVDKQPNEGATVRTDAENYPLTFVARNPEAEFFLDMLLRSARAC	soluble
MKIEKINENKIKVTISIDDLLERNIDLDTLNYNTPAAQELFWDMMEQAEIQFGFDASDSQICVEAIPDPEEGFVIIITKLDEDGEFESIHKYIKNRFRKSDLRVRKRNSRVSSSIVIYFFNNFEDLCSVCQKLRDIYSGESTLYRLKGVYYLVLTKNSWSVANLRSFEPILSEFGTKVSNVSFYEGYLNEHGEKIIEYNAVETINDYFHR	soluble
MEHIRRVAELAREIARNNGLDPERAYLAGLLHDAARDLPEEELRRLAPPENEVEEAHPLALHGRAARALAASWGVRDEEVLEAIEGHVYGVDPENGIGMALYVADVSEPGRGVNEEIRELALAGRLKEAYRLAVRNKVHYLKAKKIPIHPRTLEVYHSL	soluble
MQRETGSERVDVDMEKPGMISRWYDDKGFGFILPKTGGEEVFLHISAFRGDRRPRQGDQVWFLASQDAQGRLRAERARLDALTIDPPTVRRGAQAPVTRAQARPAPTPPSALQRPLA	not soluble
MDKTVFQQDLAPYVKYSLNKKKRWETGNDKNYLSEVQKRYRGMDMFVIDRVRLNSSPYFCFISRENFFHNYFLQFPIRQLHQLNADNSYSYVYANQTYGQSYKSLQPENRSPSKSKSAKKPELYQNAKVAYHIITPPKNYEKLQAPKFCPGSSDRNLTHRTLTHWRRVKRMRDALLSLRYEKFEVLDEEVDMVDDYLIFDQYDPPRKLLV	not soluble
SNAMKIIFSASPANRAAAYALRQAVFVEERGISADVEFDVKDTDQCEYAVLYLQPDLPITTLRLEPQADHVMRFGRVCTRKAYRGHGWGRQLLTAAEEWATQRGFTHGEIHGELTAQRFYELCGYRVTAGPYDEDGAPVVIMHKQLL	soluble
MKGILGFEYGIVQAPLGPDISGPELVAAVANAGGIGLLRCPDWECPDYLRELIRKTKTLTEKPFGIGVVLAFPHDLNIKTILEEKVAVLQLYWGDCSQELVDDAHFAGVKVIPQVGNVEEARKAVAVGVDAIIVQGREAGGHVIGKDGLFSLLPRVVDLVGERDIPVIAAGGIVDGRGYVAALSLGAQGVCLGTRFVATHESYAHPIYKRKLIEYEKTEYTDVFGRARWPGAPQRVLETPFFDDWRSLPAHENEVNQPIIGRSTIHGVEKEIRRFSGTVPNMTTTGDLESMAMYAGQSVGLIKEILPAGEVVKSLVEEAQALILQKFNNATTT	not soluble
MLLKLKCTVNNYAWGPKGNSSMAGSLALDGGHIPNLDKDKPYAEFWVGTHANGPAHVIEKDIALKQLLATSPELQGKHEKGNLSFLFKVLSVLGPLSIQIHPTKEQGKLLHATDPKNYPDDNHKPEIAIALTEFELLSGFRQHSQISEYLKLYSEIQELLTEEEKSQIDSLGSYGESSAQVLKKIFSRIWRTPKEKLQIVVDKLARRIQGHENKTALDEIIVYLFTLYPGDVGVFAPIFLNYFKLQPGEATFLEPNMPHAYLKGDCVECMADSDNTIRAGLTPKYIDVESLVEMLNYDETLLPKYIPNELDDGSLLFTPRGIDEFWVQEVKGPAGSIYQLPYSESCSVLTVLYGTATVTLGDASQVLNRGEVVFIGATHDAERPKINISDDFLAFRAFTPSPRALESLSNKRLIID	not soluble
MGSDKIHHHHHHGCSFLIKEVNVKQENEAGEMVAYIKAGEIATFTFSGEINIDGDASNETFIVGFLAPRSWNVRQNATVTYREDRYETEVDHKMTVIPDTEQPANYKGMSWSAALKKKYGVRGNVLNDMEWIAFKSDNYPSVNGTIHYTVTIKCNSGKSNLKFRPSFFINHSSDGIGGDEAHYSVKDADDCFEVVEGSGTVIDFCSTHYYQIEPLSALQDDYVTFTFQGDINTNELIKAENVYIEATAYTIEGKIYTVNEKSAKTLMKRETKLPRYNVTLWPGGFFNIPDGETISRIEYIFTNEDGTVSISQSDDSRDNEGEEVEEGIKEPFVFEFQCE	not soluble
MNGESDCATCTISGAKLGNALGAIWTFVHTMEQGDVVLVRHGAWLSIGIIGPYRYVKHLDNDIYGFCHQRSVEWKIINENVRLYNEKVHETLRHPGVVTKSKYTVHELQLGIEW	not soluble
MEAGSIVLGLVGKTNVGKSTFFAAATEVPVKIENRPFVTIEPNVGVGYARKRCAHVELGLPRCDPVNSLCIEGWRFIPVKLLDVAGLVPGAHRGRGLGNRFLDDVRKADALLLVVDASGSTDPEGVPVKPGSYDPVEEVGLMLGEIYEWMLQNLARDWERFARRVDTAGNVDLVTALSQRLSGFEIPRGVVAGVLEETGLGEKRLSSWSREDLRLFVKLVLERGKPAVILANKVDVPGAEENVERLGSSYPGIPVVPASALAELMLRRLAREGRVRYIPGDPDFTVKDPGGLGGKALKALELVRERVMKRWGGTGVVQAINTAVFDVLDMIAVYPVEDPNRYTDREGRILPDVILVKRGSTPRDLAYRIHTDLGKTFLYAVNAKTKQRVGEGYRLQDGDVVKIVAAAGKR	soluble
MGSSHHHHHHSSGLVPRGSMAQGLIEVERKFLPGPGTEERLQELGGTLEYRVTFRDTYYDTPELSLMQADHWLRRREDSGWELKCPGAAGVLGPHTEYKELTAEPTIVAQLCKVLRADGLGAGDVAAVLGPLGLQEVASFVTKRSAWKLVLLGADEEEPQLRVDLDTADFGYAVGEVEALVHEEAEVPTALEKIHRLSSMLGVPAQETAPAKLIVYLQRFRPQDYQRLLEVNSS	soluble
AKVQAYVSDEIVYKINKIVERRRAEGAKSTDVSFSSISTMLLELGLRVYEAQMER	soluble
LEILRKNRINEPCIKLNTHSIANKIYATENYIIGIPTDHPDEISDAFTKSVAALLAKSNGIRTPELICFDDSYTIKALDKKLHKIGKAEDGACNLILDMLRLLRLAKDLF	not soluble
MAELISFVVPTQSDKVLLVWDLSTGPPAEALSHSLFTVFSQFGLLYSVRVFPNAAVARPGFYAIIKFYSSRDAQRAQKACDGKPLFQTSPVKVRLGTRHKALQHQAFALNSSRCQELANYYFGFSGWSKRIIKLQELSGLEDAALAVPMQKGSPQFLCAVEVVLPPYGCRSPGVGISEEPLRQLEEGQSSFLMKRKTAQKLAFQAAVSDAFQKLTIVVLESGRIAVEYRPTAEDLDARSEEELQNLIQVSCSSWSQSSQREEECLSDFSLEEEDLKLCDPH	soluble
